# Assay results: publication PMC9104438, “Application of a Fluorescence Anisotropy-Based Assay to Quantify Transglutaminase 2 Activity in Cell Lysates” (International Journal of Molecular Sciences, 2022)
# Experiments:
# TGase 2 in cell lysates = target: T1, TGase 2 in cell lysates (Homo sapiens, UniProt P21980); experiment: FA-based assay of TGase 2 activity in cell lysates, control with inhibitor; assay type: biochemical, human and mouse; conditions: 10 µM inhibitor, preincubation 10 min; DMC 30 µM, R-I-Cad 0.81 µM; all studied cell lines
# T1 construct: endogenous in cells; host or cells: lysates of 30 cell lines (27 human, 3 mouse), e.g. HUVEC, A375
# T1 sequence (P21980 2-687 limits assumed): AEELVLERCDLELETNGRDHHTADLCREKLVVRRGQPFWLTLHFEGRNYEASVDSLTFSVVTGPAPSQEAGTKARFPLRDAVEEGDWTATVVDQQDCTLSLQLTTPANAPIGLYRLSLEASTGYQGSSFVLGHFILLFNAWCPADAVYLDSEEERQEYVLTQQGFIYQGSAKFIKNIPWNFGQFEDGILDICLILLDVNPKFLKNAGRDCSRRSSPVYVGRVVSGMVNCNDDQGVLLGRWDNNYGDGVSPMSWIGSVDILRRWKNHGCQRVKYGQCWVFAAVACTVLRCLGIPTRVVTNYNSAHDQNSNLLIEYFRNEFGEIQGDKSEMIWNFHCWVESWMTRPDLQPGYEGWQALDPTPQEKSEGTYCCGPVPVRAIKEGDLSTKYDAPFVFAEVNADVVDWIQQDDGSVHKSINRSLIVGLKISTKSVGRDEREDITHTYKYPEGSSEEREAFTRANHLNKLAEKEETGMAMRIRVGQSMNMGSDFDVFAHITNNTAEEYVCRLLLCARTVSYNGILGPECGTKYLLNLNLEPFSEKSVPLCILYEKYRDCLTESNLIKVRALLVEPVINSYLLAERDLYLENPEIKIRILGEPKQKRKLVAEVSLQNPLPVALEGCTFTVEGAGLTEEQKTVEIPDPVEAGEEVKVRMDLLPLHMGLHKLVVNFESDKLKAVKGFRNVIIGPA
# Protocol: Lysis of cell pellets was performed as described recently. Accordingly, cell pellets were resuspended in 50 µL modified RIPA buffer A, incubated on ice for 30 min and applied to ultrasound (Bandelin Sonopuls, 2 × 15 s, 20% power at ambient temperature). Subsequently, cell lysates were incubated on ice for 10 min and were then spun for 15 min at 4 °C at 15,000× g. The supernatants were transferred into fresh tubes. The protein content was determined with a BCA protein assay (ThermoFisher, Waltham, MA, USA) according to the manufacturer’s protocol. Lysates were stored at −60 °C.
# hTGase 3 = target: T2, hTGase 3 (Homo sapiens, UniProt Q08188); experiment: FA-based assay, kinetic characterization of acyl donor DMC with R-I-Cad; assay type: biochemical; design: purchased Zedira T013; conditions: hTGase 3 5 µg/mL, R-I-Cad 0.74 µM, mean (SEM)
# T2 sequence (Q08188 2-467 limits assumed): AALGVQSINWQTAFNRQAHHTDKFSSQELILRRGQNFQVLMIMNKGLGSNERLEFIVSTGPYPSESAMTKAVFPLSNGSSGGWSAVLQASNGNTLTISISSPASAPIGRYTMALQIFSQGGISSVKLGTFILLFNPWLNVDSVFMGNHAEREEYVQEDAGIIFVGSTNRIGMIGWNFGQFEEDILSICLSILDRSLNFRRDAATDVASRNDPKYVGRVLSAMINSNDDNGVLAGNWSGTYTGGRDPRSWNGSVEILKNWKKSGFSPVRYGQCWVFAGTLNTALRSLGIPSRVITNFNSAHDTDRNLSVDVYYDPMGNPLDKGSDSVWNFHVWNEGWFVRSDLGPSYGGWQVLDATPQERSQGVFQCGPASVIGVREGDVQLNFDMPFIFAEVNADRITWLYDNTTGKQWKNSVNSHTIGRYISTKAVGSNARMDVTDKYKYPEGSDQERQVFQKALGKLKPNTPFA
# T2 sequence (Q08188 468-693 partner limits assumed): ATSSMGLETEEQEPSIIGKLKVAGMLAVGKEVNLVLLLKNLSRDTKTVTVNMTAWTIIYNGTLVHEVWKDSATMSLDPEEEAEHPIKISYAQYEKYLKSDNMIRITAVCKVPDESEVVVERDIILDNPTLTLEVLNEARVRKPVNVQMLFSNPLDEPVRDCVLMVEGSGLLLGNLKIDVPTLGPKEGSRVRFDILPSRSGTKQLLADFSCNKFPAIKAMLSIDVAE
# Protocol: (§1) For the kinetic characterization of DMC (Figure 1B) in the presence of a fixed concentration of R-I-Cad (0.74 µM), eight different concentrations of DMC (0.3–300 µM) were used (2–3 separate experiments, each performed in duplicate). The corresponding stock solutions of DMC and R-I-Cad were prepared in assay buffer A and DMSO, respectively. […] Values for Km, Ki and Vmax were calculated according to the equation of substrate inhibition (Equation (2)). (2) v=Vmax∗[S]/Km+[S]∗(1+[S]/Ki)
# hTGase 6 = target: T3, hTGase 6 (Homo sapiens, UniProt O95932); experiment: as above; assay type: biochemical; design: purchased Zedira T021; conditions: hTGase 6 5 µg/mL, R-I-Cad 0.74 µM, mean (SEM)
# T3 sequence (O95932 1-706): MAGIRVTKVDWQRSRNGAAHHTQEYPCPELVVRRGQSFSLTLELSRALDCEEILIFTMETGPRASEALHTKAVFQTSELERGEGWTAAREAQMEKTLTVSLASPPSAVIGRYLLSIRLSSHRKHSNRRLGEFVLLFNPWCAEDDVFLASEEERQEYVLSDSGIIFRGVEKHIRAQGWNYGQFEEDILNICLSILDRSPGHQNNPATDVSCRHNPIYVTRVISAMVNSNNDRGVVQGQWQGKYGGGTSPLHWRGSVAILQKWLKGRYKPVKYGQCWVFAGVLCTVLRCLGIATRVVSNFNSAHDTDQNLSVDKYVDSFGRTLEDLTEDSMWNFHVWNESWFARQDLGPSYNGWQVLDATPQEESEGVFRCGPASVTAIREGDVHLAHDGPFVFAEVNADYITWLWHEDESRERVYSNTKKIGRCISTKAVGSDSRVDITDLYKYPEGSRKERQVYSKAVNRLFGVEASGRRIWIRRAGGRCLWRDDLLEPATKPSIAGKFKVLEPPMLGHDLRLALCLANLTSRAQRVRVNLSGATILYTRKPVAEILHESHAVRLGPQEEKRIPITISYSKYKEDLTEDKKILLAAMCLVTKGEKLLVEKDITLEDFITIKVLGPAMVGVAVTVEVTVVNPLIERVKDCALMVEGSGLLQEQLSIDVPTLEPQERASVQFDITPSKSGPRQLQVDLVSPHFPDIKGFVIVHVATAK
# Protocol: as §1
# [1] = read-out: Ki (substrate inhibition)
FA increase over time in cell lysates in the presence of inhibitor (TGase 2 in cell lysates),Ki (hTGase 3; [1]),Ki (hTGase 6; [1]),Molecule,Km (hTGase 3),"Vmax (hTGase 3; pH 8.0, 30 °C)",Km (hTGase 6),"Vmax (hTGase 6; pH 8.0, 30 °C)"
below the detection limit,–,–,C=CC(=O)NCCCC[C@H](NC(=O)Cc1ccccc1)C(=O)N1CCN(c2cccc(C)n2)CC1 [Compound 1],–,–,–,–
–,571 µM,189 µM,"N,N-dimethylated casein [DMC]",6.29 µM,5.80 (0.09) mA mL s^−1 mg^−1,16.6 µM,27.1 (4.1) mA mL s^−1 mg^−1
